Experimental data: PMC9482650, “Quantitative fragmentomics allow affinity mapping of interactomes” (Nature Communications, 2022)

biological target: NHERF2_2, Q15599; experiment: holdup assay; parameters: key: below the threshold = too weak to quantify, mostly under pKd 3.1 to 4; settings: plain residues with an end cap or a label only (N-terminal biotin on a linker: ado-ado)
Sequence (Q15599 142-238): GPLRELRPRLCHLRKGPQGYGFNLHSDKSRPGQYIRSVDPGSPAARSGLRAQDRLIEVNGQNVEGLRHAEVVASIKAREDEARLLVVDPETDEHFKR

Binder	pKd
HSGYRLNDYV [CLDN14, O95500]	below the threshold
TACCHSETVV [TGFA, P01135]	below the threshold
TSSMRGMDAV [RSRC2, Q7L4I2]	below the threshold

biological target: T1, MPDZ_5, O75970; experiment: holdup assay; parameters: key: below the threshold = too weak to quantify, mostly under pKd 3.1 to 4; settings: plain residues with an end cap or a label only (N-terminal biotin on a linker: ado-ado)
T1 sequence (O75970 695-796, limits assumed, looked up): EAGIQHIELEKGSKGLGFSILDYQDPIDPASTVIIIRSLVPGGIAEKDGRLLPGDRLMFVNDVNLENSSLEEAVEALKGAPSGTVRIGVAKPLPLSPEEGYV

Binder	pKd
HSGYRLNDYV [CLDN14, O95500]	below the threshold
TACCHSETVV [TGFA, P01135]	below the threshold
TSSMRGMDAV [RSRC2, Q7L4I2]	below the threshold

biological target: GRASP, Q7Z6J2; experiment: holdup assay; parameters: key: below the threshold = too weak to quantify, mostly under pKd 3.1 to 4; settings: plain residues with an end cap or a label only (N-terminal biotin on a linker: ado-ado)
Sequence (Q7Z6J2 96-193): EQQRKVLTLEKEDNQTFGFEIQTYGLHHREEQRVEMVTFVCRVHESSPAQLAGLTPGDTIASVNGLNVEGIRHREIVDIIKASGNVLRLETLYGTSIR

Binder	pKd
HSGYRLNDYV [CLDN14, O95500]	3.74
TACCHSETVV [TGFA, P01135]	3.5
TSSMRGMDAV [RSRC2, Q7L4I2]	below the threshold

biological target: T2, DFNB31_3, Q9P202; experiment: holdup assay; parameters: key: below the threshold = too weak to quantify, mostly under pKd 3.1 to 4; settings: plain residues with an end cap or a label only (N-terminal biotin on a linker: ado-ado)
T2 sequence (Q9P202 811-907, limits assumed, looked up): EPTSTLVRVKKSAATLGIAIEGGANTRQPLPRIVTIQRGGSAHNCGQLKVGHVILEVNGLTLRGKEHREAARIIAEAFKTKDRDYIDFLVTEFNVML

Binder	pKd
HSGYRLNDYV [CLDN14, O95500]	below the threshold
TACCHSETVV [TGFA, P01135]	below the threshold
TSSMRGMDAV [RSRC2, Q7L4I2]	below the threshold

biological target: DLG1_1, Q12959; experiment: holdup assay; parameters: key: below the threshold = too weak to quantify, mostly under pKd 3.1 to 4; settings: plain residues with an end cap or a label only (N-terminal biotin on a linker: ado-ado)

Binder	pKd
HSGYRLNDYV [CLDN14, O95500]	below the threshold
TACCHSETVV [TGFA, P01135]	4.56
TSSMRGMDAV [RSRC2, Q7L4I2]	below the threshold

biological target: IL16_3, Q14005; experiment: holdup assay; parameters: key: below the threshold = too weak to quantify, mostly under pKd 3.1 to 4; settings: plain residues with an end cap or a label only (N-terminal biotin on a linker: ado-ado)
Sequence (Q14005 1107-1207): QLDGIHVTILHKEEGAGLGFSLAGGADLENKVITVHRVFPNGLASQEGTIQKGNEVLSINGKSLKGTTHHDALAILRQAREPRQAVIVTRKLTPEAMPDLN

Binder	pKd
HSGYRLNDYV [CLDN14, O95500]	below the threshold
TACCHSETVV [TGFA, P01135]	below the threshold
TSSMRGMDAV [RSRC2, Q7L4I2]	below the threshold

biological target: T3, SNTA1, Q13424; experiment: holdup assay; parameters: key: below the threshold = too weak to quantify, mostly under pKd 3.1 to 4; settings: plain residues with an end cap or a label only (N-terminal biotin on a linker: ado-ado)
T3 sequence (Q13424 82-180, limits assumed, looked up): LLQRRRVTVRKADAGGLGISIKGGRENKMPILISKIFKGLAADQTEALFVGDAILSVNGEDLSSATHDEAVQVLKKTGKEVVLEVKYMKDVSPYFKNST

Binder	pKd
HSGYRLNDYV [CLDN14, O95500]	below the threshold
TACCHSETVV [TGFA, P01135]	5.04
TSSMRGMDAV [RSRC2, Q7L4I2]	below the threshold

biological target: T4, SIPA1L2, Q9P2F8; experiment: holdup assay; parameters: key: below the threshold = too weak to quantify, mostly under pKd 3.1 to 4; settings: plain residues with an end cap or a label only (N-terminal biotin on a linker: ado-ado)
T4 sequence (Q9P2F8 945-1036, limits assumed, looked up): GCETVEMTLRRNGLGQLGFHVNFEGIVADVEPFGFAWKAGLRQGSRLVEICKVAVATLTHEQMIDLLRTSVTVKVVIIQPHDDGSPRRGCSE

Binder	pKd
HSGYRLNDYV [CLDN14, O95500]	below the threshold
TACCHSETVV [TGFA, P01135]	below the threshold
TSSMRGMDAV [RSRC2, Q7L4I2]	below the threshold

biological target: GRIP2_6, Q9C0E4; experiment: holdup assay; parameters: key: below the threshold = too weak to quantify, mostly under pKd 3.1 to 4; settings: plain residues with an end cap or a label only (N-terminal biotin on a linker: ado-ado)
Sequence (Q9C0E4 648-740): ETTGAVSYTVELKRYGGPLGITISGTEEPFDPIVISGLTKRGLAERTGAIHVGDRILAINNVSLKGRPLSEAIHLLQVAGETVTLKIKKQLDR

Binder	pKd
HSGYRLNDYV [CLDN14, O95500]	below the threshold
TACCHSETVV [TGFA, P01135]	below the threshold
TSSMRGMDAV [RSRC2, Q7L4I2]	below the threshold

biological target: T5, PDZD2_2, O15018; experiment: holdup assay; parameters: key: below the threshold = too weak to quantify, mostly under pKd 3.1 to 4; settings: plain residues with an end cap or a label only (N-terminal biotin on a linker: ado-ado)
T5 sequence (O15018 329-429, limits assumed, looked up): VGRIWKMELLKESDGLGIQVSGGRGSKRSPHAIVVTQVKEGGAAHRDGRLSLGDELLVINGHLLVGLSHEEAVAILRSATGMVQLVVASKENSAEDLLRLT

Binder	pKd
HSGYRLNDYV [CLDN14, O95500]	4.79
TACCHSETVV [TGFA, P01135]	4.32
TSSMRGMDAV [RSRC2, Q7L4I2]	below the threshold

biological target: DLG2_3, Q15700; experiment: holdup assay; parameters: key: below the threshold = too weak to quantify, mostly under pKd 3.1 to 4; settings: plain residues with an end cap or a label only (N-terminal biotin on a linker: ado-ado)

Binder	pKd
HSGYRLNDYV [CLDN14, O95500]	below the threshold
TACCHSETVV [TGFA, P01135]	4.05
TSSMRGMDAV [RSRC2, Q7L4I2]	below the threshold

biological target: MAGI2_2, Q86UL8; experiment: holdup assay; parameters: key: below the threshold = too weak to quantify, mostly under pKd 3.1 to 4; settings: plain residues with an end cap or a label only (N-terminal biotin on a linker: ado-ado)
Sequence (Q86UL8 410-522): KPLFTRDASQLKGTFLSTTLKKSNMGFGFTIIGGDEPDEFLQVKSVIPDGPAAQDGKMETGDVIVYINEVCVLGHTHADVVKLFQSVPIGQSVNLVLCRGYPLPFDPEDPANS

Binder	pKd
HSGYRLNDYV [CLDN14, O95500]	below the threshold
TACCHSETVV [TGFA, P01135]	4.74
TSSMRGMDAV [RSRC2, Q7L4I2]	4.02

biological target: FRMPD2_3, Q68DX3; experiment: holdup assay; parameters: key: below the threshold = too weak to quantify, mostly under pKd 3.1 to 4; settings: plain residues with an end cap or a label only (N-terminal biotin on a linker: ado-ado)
Sequence (Q68DX3 1073-1166): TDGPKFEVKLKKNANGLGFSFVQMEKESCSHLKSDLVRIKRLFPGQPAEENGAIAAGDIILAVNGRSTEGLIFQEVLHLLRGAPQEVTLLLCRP

Binder	pKd
HSGYRLNDYV [CLDN14, O95500]	below the threshold
TACCHSETVV [TGFA, P01135]	3.56
TSSMRGMDAV [RSRC2, Q7L4I2]	below the threshold

biological target: DLG1_2, Q12959; experiment: holdup assay; parameters: key: below the threshold = too weak to quantify, mostly under pKd 3.1 to 4; settings: plain residues with an end cap or a label only (N-terminal biotin on a linker: ado-ado)

Binder	pKd
HSGYRLNDYV [CLDN14, O95500]	3.77
TACCHSETVV [TGFA, P01135]	4.89
TSSMRGMDAV [RSRC2, Q7L4I2]	below the threshold

biological target: T6, NHERF3_1, Q5T2W1; experiment: holdup assay; parameters: key: below the threshold = too weak to quantify, mostly under pKd 3.1 to 4; settings: plain residues with an end cap or a label only (N-terminal biotin on a linker: ado-ado)
T6 sequence (Q5T2W1 4-100, limits assumed, looked up): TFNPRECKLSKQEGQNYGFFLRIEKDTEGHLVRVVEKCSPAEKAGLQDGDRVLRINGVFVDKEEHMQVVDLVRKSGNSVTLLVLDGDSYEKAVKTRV

Binder	pKd
HSGYRLNDYV [CLDN14, O95500]	4.59
TACCHSETVV [TGFA, P01135]	3.64
TSSMRGMDAV [RSRC2, Q7L4I2]	below the threshold

biological target: T7, PCLO, Q9Y6V0; experiment: holdup assay; parameters: key: below the threshold = too weak to quantify, mostly under pKd 3.1 to 4; settings: plain residues with an end cap or a label only (N-terminal biotin on a linker: ado-ado)
T7 sequence (Q9Y6V0 4491-4600, limits assumed, looked up): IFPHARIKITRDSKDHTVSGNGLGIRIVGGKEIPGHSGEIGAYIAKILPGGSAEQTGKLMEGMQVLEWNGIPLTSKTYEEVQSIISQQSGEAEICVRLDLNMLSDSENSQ

Binder	pKd
HSGYRLNDYV [CLDN14, O95500]	below the threshold
TACCHSETVV [TGFA, P01135]	below the threshold
TSSMRGMDAV [RSRC2, Q7L4I2]	below the threshold

biological target: FRMPD2_2, Q68DX3; experiment: holdup assay; parameters: key: below the threshold = too weak to quantify, mostly under pKd 3.1 to 4; settings: plain residues with an end cap or a label only (N-terminal biotin on a linker: ado-ado)
Sequence (Q68DX3 944-1038): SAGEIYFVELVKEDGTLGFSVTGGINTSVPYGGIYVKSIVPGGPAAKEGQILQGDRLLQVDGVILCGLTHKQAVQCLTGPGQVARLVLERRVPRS

Binder	pKd
HSGYRLNDYV [CLDN14, O95500]	below the threshold
TACCHSETVV [TGFA, P01135]	4.1
TSSMRGMDAV [RSRC2, Q7L4I2]	below the threshold

biological target: T8, DFNB31_2, Q9P202; experiment: holdup assay; parameters: key: below the threshold = too weak to quantify, mostly under pKd 3.1 to 4; settings: plain residues with an end cap or a label only (N-terminal biotin on a linker: ado-ado)
T8 sequence (Q9P202 274-371, limits assumed, looked up): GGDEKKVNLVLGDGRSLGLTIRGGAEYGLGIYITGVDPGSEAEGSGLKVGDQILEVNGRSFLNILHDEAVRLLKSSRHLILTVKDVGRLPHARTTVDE

Binder	pKd
HSGYRLNDYV [CLDN14, O95500]	below the threshold
TACCHSETVV [TGFA, P01135]	below the threshold
TSSMRGMDAV [RSRC2, Q7L4I2]	below the threshold

biological target: GRID2IP_2, A4D2P6; experiment: holdup assay; parameters: key: below the threshold = too weak to quantify, mostly under pKd 3.1 to 4; settings: plain residues with an end cap or a label only (N-terminal biotin on a linker: ado-ado)
Sequence (A4D2P6 272-370): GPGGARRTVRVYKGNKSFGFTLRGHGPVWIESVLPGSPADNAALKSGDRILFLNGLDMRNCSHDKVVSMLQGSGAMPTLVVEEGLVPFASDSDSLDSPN

Binder	pKd
HSGYRLNDYV [CLDN14, O95500]	3.63
TACCHSETVV [TGFA, P01135]	below the threshold
TSSMRGMDAV [RSRC2, Q7L4I2]	below the threshold

biological target: T9, NHERF3_4, Q5T2W1; experiment: holdup assay; parameters: key: below the threshold = too weak to quantify, mostly under pKd 3.1 to 4; settings: plain residues with an end cap or a label only (N-terminal biotin on a linker: ado-ado)
T9 sequence (Q5T2W1 373-468, limits assumed, looked up): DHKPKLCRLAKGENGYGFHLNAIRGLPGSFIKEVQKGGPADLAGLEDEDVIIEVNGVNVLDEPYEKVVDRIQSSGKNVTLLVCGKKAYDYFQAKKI

Binder	pKd
HSGYRLNDYV [CLDN14, O95500]	below the threshold
TACCHSETVV [TGFA, P01135]	below the threshold
TSSMRGMDAV [RSRC2, Q7L4I2]	below the threshold

biological target: GRIP2_5, Q9C0E4; experiment: holdup assay; parameters: key: below the threshold = too weak to quantify, mostly under pKd 3.1 to 4; settings: plain residues with an end cap or a label only (N-terminal biotin on a linker: ado-ado)
Sequence (Q9C0E4 544-642): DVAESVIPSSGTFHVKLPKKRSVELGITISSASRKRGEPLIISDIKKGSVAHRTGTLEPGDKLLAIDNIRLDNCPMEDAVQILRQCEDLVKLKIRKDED

Binder	pKd
HSGYRLNDYV [CLDN14, O95500]	below the threshold
TACCHSETVV [TGFA, P01135]	below the threshold
TSSMRGMDAV [RSRC2, Q7L4I2]	below the threshold

biological target: T10, MPP6, Q9NZW5; experiment: holdup assay; parameters: key: below the threshold = too weak to quantify, mostly under pKd 3.1 to 4; settings: plain residues with an end cap or a label only (N-terminal biotin on a linker: ado-ado)
T10 sequence (Q9NZW5 125-219, limits assumed, looked up): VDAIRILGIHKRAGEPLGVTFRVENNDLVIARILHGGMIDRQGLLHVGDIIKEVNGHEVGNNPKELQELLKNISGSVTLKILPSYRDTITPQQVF

Binder	pKd
HSGYRLNDYV [CLDN14, O95500]	3.9
TACCHSETVV [TGFA, P01135]	below the threshold
TSSMRGMDAV [RSRC2, Q7L4I2]	3.79

biological target: T11, LIN7A, O14910; experiment: holdup assay; parameters: key: below the threshold = too weak to quantify, mostly under pKd 3.1 to 4; settings: plain residues with an end cap or a label only (N-terminal biotin on a linker: ado-ado)
T11 sequence (O14910 103-200, limits assumed, looked up): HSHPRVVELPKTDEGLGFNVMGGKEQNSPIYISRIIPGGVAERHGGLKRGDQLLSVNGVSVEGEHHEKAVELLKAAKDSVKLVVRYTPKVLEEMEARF

Binder	pKd
HSGYRLNDYV [CLDN14, O95500]	below the threshold
TACCHSETVV [TGFA, P01135]	3.51
TSSMRGMDAV [RSRC2, Q7L4I2]	below the threshold

biological target: T12, CARD11, Q9BXL7; experiment: holdup assay; parameters: key: below the threshold = too weak to quantify, mostly under pKd 3.1 to 4; settings: plain residues with an end cap or a label only (N-terminal biotin on a linker: ado-ado)
T12 sequence (Q9BXL7 662-765, limits assumed, looked up): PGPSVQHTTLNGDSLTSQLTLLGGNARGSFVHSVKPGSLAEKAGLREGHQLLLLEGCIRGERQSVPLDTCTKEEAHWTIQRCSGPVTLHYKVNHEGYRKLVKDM

Binder	pKd
HSGYRLNDYV [CLDN14, O95500]	below the threshold
TACCHSETVV [TGFA, P01135]	below the threshold
TSSMRGMDAV [RSRC2, Q7L4I2]	below the threshold

biological target: MAST1, Q9Y2H9; experiment: holdup assay; parameters: key: below the threshold = too weak to quantify, mostly under pKd 3.1 to 4; settings: plain residues with an end cap or a label only (N-terminal biotin on a linker: ado-ado)
Sequence (Q9Y2H9 962-1065): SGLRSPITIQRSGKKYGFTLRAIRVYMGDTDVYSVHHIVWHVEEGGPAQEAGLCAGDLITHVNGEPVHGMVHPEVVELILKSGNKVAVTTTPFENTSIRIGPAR

Binder	pKd
HSGYRLNDYV [CLDN14, O95500]	below the threshold
TACCHSETVV [TGFA, P01135]	3.9
TSSMRGMDAV [RSRC2, Q7L4I2]	below the threshold

biological target: GIPC2, Q8TF65; experiment: holdup assay; parameters: key: below the threshold = too weak to quantify, mostly under pKd 3.1 to 4; settings: plain residues with an end cap or a label only (N-terminal biotin on a linker: ado-ado)
Sequence (Q8TF65 112-203): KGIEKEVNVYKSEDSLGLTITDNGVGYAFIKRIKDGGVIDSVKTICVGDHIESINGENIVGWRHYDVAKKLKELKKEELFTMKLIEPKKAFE

Binder	pKd
HSGYRLNDYV [CLDN14, O95500]	below the threshold
TACCHSETVV [TGFA, P01135]	below the threshold
TSSMRGMDAV [RSRC2, Q7L4I2]	below the threshold
